Results as given in patent US20190111148A1 (MONASH UNIVERSITY, published 2019).

T1: Peptide 3 of hIL-21 (human)
T1 construct: also called P3
T1 peptide: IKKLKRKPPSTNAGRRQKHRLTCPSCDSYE

T2: Peptide 4 of hIL-21 (human)
T2 construct: also called P4
T2 peptide: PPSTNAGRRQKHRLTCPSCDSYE

T3: Peptide 5 of hIL-21 (human)
T3 construct: also called P5
T3 peptide: PPSTNAGRRQKHRLT


How the values were obtained:
Peptide 2 (P2) = target: T4, Peptide 2 (P2); assay: peptide ELISA: coated peptide, biotinylated 2P2, Streptavidin-HRP/TMB, A450
T4 construct: also called peptide 2 of hIL-21; Peptide 2 (P2, 27aa)
Description: (§1) To detect epitopes of 2P2 and 3A3, peptides consisting of different regions of hIL-21 were synthesized commercially and coated on an ELISA plate, followed by blocking of non-specific binding sites with 3% BSA in PBS. Biotinylated 2P2 or 3A3 were then added to the wells and developed with Streptavidin-HRP and TMB substrates.

Peptide 1 (P1, 30aa) = target: T5, Peptide 1 (P1, 30aa); assay: as above
T5 construct: also called peptide 1 of hIL-21
Description: as §1

human IL-21 [1] = target: T6, human IL-21 (human, UniProt Q9HBE4 25-162, limits assumed); assay: SPR, immobilised mAb, IL-21 in flow; average of the five wells of Table 6 (unit from Table 6); average with range and SD of the five measurements
T6 construct: also called hIL-21; full length hIL-21
Description: Surface Plasma Resonance binding kinetics assay were performed on a Bio-rad XPR36 system by the direct amine coupling method. Briefly, a flow of mixture of EDC [N-ethyl-N′-(3-diethylamino-propyl) carbodiimide] and NHS (N-hydroxysuccinimide) was used to activate the cell surface of a GLC sensor chip before 25 μg/ml anti-IL-21 mAb was flowed through, then a shot flow of ethanolamine was used to block the remaining active sites on the cell surface. Afterwards, serial diluted solutions of IL-21 from 0 to 40 nM were flown over the cell surface to bind to the immobilized anti-IL-21 mAb molecules. Binding kinetics were performed at 25° C. with a flow rate of 30 μL/min, association time of 3 min and dissociation time of 6 min. The buffer consisted of Hepes, NaCl, tween20, and 1 mg/mL BSA at pH 7.4. The flow cell regeneration buffer between cycles was 15 mM phosphoric acid. Double references were used to process the sensorgrams. The binding curves were globally fit to the 1:1 Langmuir binding model.

mIL21 = mIL21 (mouse, UniProt Q9ES17); assay: ELISA: coated mIL21, biotinylated 2P2, Streptavidin-HRP/TMB, A450
human IL-21 [2] = target: T6, human IL-21; assay: cell-based or functional assay
human IL-21 [3] = target: T6, human IL-21; assay: SPR (ProtOn XPR36), biotinylated hIL21 immobilised on NLC chip, antibody in flow, triplicates
Description: Triplicates SPR measurements were conducted on ProtOn XPR36 (Bio-rad). NLC chips (Bio-rad) were used to immobilise biotinylated hIL21 on ligand channels, followed by flowing through of various concentrations of mouse 2P2 or humanised 2P2.

Peptide 3 of hIL-21 = target: T1, Peptide 3 of hIL-21; assay: ELISA: coated Peptide 3, biotinylated 2P2, Streptavidin-HRP/TMB, A450
Description: as §1

Peptide 4 of hIL-21 = target: T2, Peptide 4 of hIL-21; assay: ELISA, biotinylated 2P2 on coated peptide
Description: as §1

Peptide 5 of hIL-21 = target: T3, Peptide 5 of hIL-21; assay: ELISA, biotinylated 2P2 on coated peptide
Description: as §1

T6 sequence (Q9HBE4 25-162 limits assumed): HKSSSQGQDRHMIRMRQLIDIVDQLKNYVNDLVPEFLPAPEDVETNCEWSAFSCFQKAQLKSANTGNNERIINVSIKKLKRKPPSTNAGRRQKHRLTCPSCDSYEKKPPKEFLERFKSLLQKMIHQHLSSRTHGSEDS
T5 sequence (peptide, as listed by the source): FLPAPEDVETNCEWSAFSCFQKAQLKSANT
T4 sequence (peptide, as listed by the source): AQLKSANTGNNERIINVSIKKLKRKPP

| Binder | binding result (Peptide 2 (P2)) | binding result (Peptide 1 (P1, 30aa)) | Kd (human IL-21 [1]) [nM] | binding result (mIL21) | bioactivity of human IL-21 (proliferation of Ba/F3-hIL-21 R cells, [3H]-thymidine incorporation) (human IL-21 [2]) [fold] | hIL-21 mediated human B cell proliferation (CFSE dilution, flow cytometry) (human IL-21 [2]) [fold] | hIL-21 mediated human CD8 T cell activation (granzyme B/perforin double positive cells) (human IL-21 [2]) [fold] | Kd (human IL-21 [3]) [nM] | koff (human IL-21 [3]) [s⁻¹] | binding result (Peptide 3 of hIL-21) | binding result (Peptide 4 of hIL-21) | binding result (Peptide 5 of hIL-21) |
| --- | --- | --- | --- | --- | --- | --- | --- | --- | --- | --- | --- | --- |
| monoclonal antibody 2P2 (antibody, V domains shown, Mouse monoclonal antibody; it was detected with anti-mouse IgG in ELISA; also called mAb 2P2; m2P2) VH: EVQLQQSGADLVRSGASVKLSCTASGFNIKDYYIHWVKQRPEQGLELIGWIDPESGDTEYAPKFQVKATMTADTSSNTAYLQLSSLTSEDTAVYYCNDGSGYWGQGTTLTVSS VL: not shown | no binding | no binding | 3.33 | no binding | > 10 | ~20 | > 10 | 0.0201 | 0.000512 | binds | binds | binds |
| humanized 2P2 antibody (antibody, V domains shown, it was detected with anti-human IgG in ELISA; also called h2P2; humanised 2P2) VH: QVQLVQSGAEVKKPGASVKVSCKASGFNIKDYYIHWVRQAPGQGLELIGWIDPESGDTNYAQKFQVKATMTRDTSISTAYMELSRLRSDDTAVYYCNDGSGYWGQGTTVTVSS VL: DVVMTQSPLSLPVTLGQPASISCKSSQSLLDSDGETYLNWLQQRPGQSPRRLISLVSKLDSGVPDRFSGSGSGTDFTLKISRVEAEDVGVYYCWQGTHFPYTFGQGTKLEIK | – | – | – | – | – | – | – | 0.0305 | 0.00037 | – | – | – |
